The record followed here is the nanobody polyreactivity screen of Harvey et al. (2022).

This series in a line: yeast display, Sf9 membrane polyspecificity reagent, FACS + sequencing; frameworks hold sequencing errors. The method in brief: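 Nanobodies came from a synthetic yeast display library in Saccharomyces cerevisiae BJ5465, induced with galactose for 36–48 hours and stained for 1 hour at 4 °C with 10% biotinylated, detergent-solubilized Sf9 membrane reagent. Cells were enriched on streptavidin microbeads and then FACS-sorted, with low and high (top ~1%) gates set on anti-HA fluorescence for expression and streptavidin fluorescence for reagent binding. Each polyreactivity label reflects the gate a clone came from. Genes were amplified by colony PCR, sequenced by MiSeq 2 × 250 and filtered by CDR length.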
In the case of “QVQLVESGGGLVQAGGSLRLSCAASGSTFYRNAMGWYRQAPGKERELVAAISRGSRTYYADSVKGRFTISRDNAKNTVYLQMNSLKPEDTAVYNCAARAGARDTLHDYWGQGTQVTVSS”, the “polyreactivity (PSR sort gate)” value is “high polyreactivity”.
Under “QVQLVESGGGLVQAGGSLRLSCAASGSTFYRNAMGWYRQAPGKERELVAVISISDGSTYADSVKGRFTISRDNAKNTVYLQMNSLKPEDTAVYYCAKVLNPLDYYDFDYWGQGTQVTVSS” stands “low polyreactivity”; under “QVQLVESGGGLVQAGGSLRLSCAASGSTFYRYAMAWYRPAPGKERELVAAITRGGGRTYYADSVKGRFTISRDNAKNTVYLQMNSLKPEDTAVYYCNSASPYYDSWGQGTQVTVSS”, “high polyreactivity”; under “QVQLVESGGGLVQAGGSLRLSCAASGSTFYRYAMGWYRQAPGKERELVAAISRGGGRTNYADSVKGRFTISRDNAKNTVYLQMNSLKPEDTAVYYCAADDTYTRYDYWGQGTQVTVSS”, “high polyreactivity”.
For “QVQLVESGGGLVQAGGSLRLSCAASGSTFYSNAMGWYRQAPGKERELVAAINYSGGRTYYADSVKGRFTLSRDNAKNTVYLQMNSLKPEDTAVYYCNAQFYNVRGYYIGEYWGQGTQVTVSS” the value was “high polyreactivity”; for “QVQLVESGGGLVQAGGSLRLSCAASGSTFYSYAIGWYRQAPGKERELVADISYSDGSTYYADSVKGRFTISRDYAKNTVYLQMNSLKPEDTAVYYCDAYALSYFKIMDYWGQGTQVTVSS”, “low polyreactivity”.
Under “QVQLVESGGGLVQAGGSLRLSCAASGSTFYSYAMGWSRQAPGKERELVARISGSGGSTYYADSVKGRFTISRDTAKNTVYLQMNSLKPEDPAVYYCAADDIYKYYQYYAFPYYRYDYWGQGTQVTVSS” stands “low polyreactivity”.
Turning to “QVQLVESGGGLVQAGGSLRLSCAASGSTFYSYAMGWYRQAPGKERELVAAISWDGGLTYYADSVKGRFTISRDTAKNTVYLQMNSLKPEDTAVYYCAAAYPTYRHYYWGQGTQVTVSS”, the “polyreactivity (PSR sort gate)” value is listed as “low polyreactivity”.
As for “QVQLVESGGGLVQAGGSLRLSCAASGSTFYSYAMGWYRQAPGKERELVAAITKGGGSTYYADSVKGRFTISRDNAKNTVYLQMNSLKPEDTAVYYCAAPGLYWYYTRSGYDYWGQGTQVTVSS”, the “polyreactivity (PSR sort gate)” value is “high polyreactivity”.
On to “QVQLVESGGGLVQAGGSLRLSCAASGSTFYSYVMGWYRQAPGKERELVAVISNDGSTNYADSVKGRFTISRDNAKNTVYLQMNSLKPEDTAVYYCNAEWTRDFYEYDYWGQGTQVTVSS”, for which the “polyreactivity (PSR sort gate)” value is listed as “low polyreactivity”.
For “QVQLVESGGGLVQAGGSLRLSCAASGSTFYTNAMGLYRQAPGKERELVAAISWSAGSTYYADSVKGRFTISRDNAKNTVYLQMNSLKPEDTAVYYCAAYYWYKWGYKYGYWGQGTQVTVSS” the value was “high polyreactivity”.
With “QVQLVESGGGLVQAGGSLRLSCAASGSTFYTNAMGWYTQAPGKERELVAAISGSGGSTYYADSVKGRFTISRDNAKNTVYLQMNSLKPEDTAVYYCAARSRYYDTRFDYWGQGTQVTVSS”, the “polyreactivity (PSR sort gate)” value is “low polyreactivity”.
In the case of “QVQLVESGGGLVQAGGSLRLSCAASGSTFYTNTMGWYRQAPGKERELVADINGSGGSTYYADSVKGRFTISRDNAKNTVYLQMNSLKPEDTAVYYCAAGSWQVAIRYDYWGQGTQVTVSS”, the “polyreactivity (PSR sort gate)” value is “low polyreactivity”.
Regarding “QVQLVESGGGLVQAGGSLRLSCAASGSTFYTYAMGWYRQAPGKEMELVAAIRSAGSTYYADSVKGRFTISRDNAKNTVYLQMNSLKPEDTAVYYCNTVARSSVGYEYWGQGTQVTVSS”, the “polyreactivity (PSR sort gate)” value is recorded as “high polyreactivity”.
Regarding “QVQLVESGGGLVQAGGSLRLSCAASGSTFYTYAMGWYRQAPGKERELVAAITSGGSTYYADSVKGRFTISRDNAKNTVYLQMNSLKPEDTAVYYCAARPYPHSAYEGDYWGRGTQVTVSS”, the “polyreactivity (PSR sort gate)” value is listed as “low polyreactivity”.
On to “QVQLVESGGGLVQAGGSLRLSCAASGSTFYTYAMGWYRQAPGKERELVAAITYSGGTTYYADSVKGRFTISRDNAKNTVYLQMNSLKPEDTAVYYCNTRSYYYSDDYWGQGTQVTVSS”, for which the “polyreactivity (PSR sort gate)” value was “low polyreactivity”.
Under “QVQLVESGGGLVQAGGSLRLSCAASGSTFYTYDMGWYRQAPGKERELVASITSGGSTNYADSVKGRFTISRDNAKNTVYLQMNSLKPEDTAVYYCAVGTYTIYSGTLYDYKYYWGQGTQVTVSS” stands “low polyreactivity”.
In the case of “QVQLVESGGGLVQAGGSLRLSCAASGSTFYTYTMGWYRQAPGKERELVAAISSRGVSTYYADSVKGRFTISRDNAKNTVYLQMNSLKPEDTAVYYCAVSRIVDFGQKMYYWGQGTQVTVSS”, the “polyreactivity (PSR sort gate)” value was “high polyreactivity”.
In the case of “QVQLVESGGGLVQAGGSLRLSCAASGSTFYTYTMGWYRQAPGKERELVAAISSSGGDTYYADSVKGRFTISRDNAKNTVYLQMNSLKPEDTAVYYCAALGAFPSLEFDYWGQGTQVTVSS”, the “polyreactivity (PSR sort gate)” value was “low polyreactivity”.
Under “QVQLVESGGGLVQAGGSLRLSCAASGSTFYVNAMGSYRKAPGKEMEFVAAITWNSGSTYYADSVKGRFTISRDNANYTVYLQMNSLKPEDTAVYYCAAVLSVRDYGYDYWGQGTQVTVSS” stands “low polyreactivity”.
Turning to “QVQLVESGGGLVQAGGSLRLSCAASGSTFYVNAMGWYRQAPGKERELVAAITKSGGNTYYADSVKGRFTISRDNAKNTVYLQMNSLKPEDTAVYYCAKKYPRDMDYWGQGTQVTVSS”, the “polyreactivity (PSR sort gate)” value was “high polyreactivity”.
Take “QVQLVESGGGLVQAGGSLRLSCAASGSTFYVNAMGWYRQAPGKERELVARITENGGITYYADSVKGRFTISRDNAKNTVYLQMNSLKPEDTAVYYCNTVQYRNEMGYWGQGTQVTVSS”: the “polyreactivity (PSR sort gate)” value was “high polyreactivity”.
With “QVQLVESGGGLVQAGGSLRLSCAASGSTFYVNAMGWYRQAPGKERELVATISSGGSTNYADSVKGRFTISRDNAKNTVYLQMNSLKPEDTAVYYCAKEYGSIIPYDYWGQGTQVSVSS”, the “polyreactivity (PSR sort gate)” value is listed as “low polyreactivity”.
Under “QVQLVESGGGLVQAGGSLRLSCAASGSTFYVNDMGWYRQAPGKERELVATISSGSSTYYADSVKGRFTISRDNAKNTVYFQMNSLKPEDTAVYYCAADGVAEEGFDAPYDYWGQGTQVTVSS” stands “low polyreactivity”; under “QVQLVESGGGLVQAGGSLRLSCAASGSTFYVNTMGWYRQAPGKERELVAAITDSGVGTYADSVKGRFTISRDNAKNTVYLQMNSLKPEDTAVYYCAADGVTRDYDYWGQGTQVTVSS”, “low polyreactivity”.
“QVQLVESGGGLVQAGGSLRLSCAASGSTFYVYAMGVYRQAPGKERELVAAIRGGGSTNYADSVKGRFTISRDNAKNTVYLQMNSLKPEDTAVYYCAARYRSLRYRPSGYSYNYWGQGTQVTVSS”: the “polyreactivity (PSR sort gate)” value is recorded as “high polyreactivity”.
As for “QVQLVESGGGLVQAGGSLRLSCAASGSTFYVYAMGWYRKAPGKEREFVAVITTSGGTTYYADSVKGRFTISRDNAKNTVYLQMNSLKPEDTAVYYCNAGVGYYSLPYDYWGQGTQVTVSS”, the “polyreactivity (PSR sort gate)” value is “low polyreactivity”.
On to “QVQLVESGGGLVQAGGSLRLSCAASGSTFYVYAMGWYRQAPGKDRELVAAITFSGGSTYADSVKGRFTISRDNAKNTVYLQMNSLKPEDTAVYYCATDERGRYTVVYVDEFLYDYWGQGTQVTVSS”, for which the “polyreactivity (PSR sort gate)” value was “low polyreactivity”.
For the sequence “QVQLVESGGGLVQAGGSLRLSCAASGSTFYVYAMGWYRQAPGKERELVAAIDRGSSTYADSVKGRFTISRDNAKNTVYLQMNSLKPEDTAVYYCAAEKERDEEYDYWGQGTQVTVSS”, the “polyreactivity (PSR sort gate)” value is given as “low polyreactivity”.
As to “QVQLVESGGGLVQAGGSLRLSCAASGSTFYVYAMGWYRQAPGKERELVAAITSGDDTNYADSVKGRFTISRDNAKNTVYLQMNSLKPEDPAVYYCAAEAVGYGSPRGYYWYDYWGQGTQVTVSS”, the “polyreactivity (PSR sort gate)” value was “high polyreactivity”.
For “QVQLVESGGGLVQAGGSLRLSCAASGSTFYVYAMGWYRQAPGKERELVAAITSGSSTYADSVKGRFTISRDNAKNTVYLQMNSLKPEDTAVFYCNALSRTAWSYYLYPSTPFDYWGQGTQVTVSS” the value was “low polyreactivity”; for “QVQLVESGGGLVQAGGSLRLSCAASGSTFYVYDMGWYRQAPWKERELVAAISSGAGSTYYADSVKGRFTSSRDNAKNTVYLKLNSLKRKIPRSITALLFTVNGGGSRSHDYWAQGTQVTVSS”, “low polyreactivity”; for “QVQLVESGGGLVQAGGSLRLSCAASGSTFYWNALGWYRQAPGKERELVADIDGRGGSTYYADSVKGRFTISRDNAKNTVYLQMNSLKPEDTAVYYCAARAPFLSVPSELDYWGQGTQVTVSS”, “low polyreactivity”.
For “QVQLVESGGGLVQAGGSLRLSCAASGSTFYWNGMGWYRQAPGKERELVAAITKSGSRTYYADSVKGRFTISRDNAKNTVYLQMNSLKPEDTAVYYCAAVNYIYTGGGTYYYWGQGTQVTVSS” the value was “high polyreactivity”.
Turning to “QVQLVESGGGLVQAGGSLRLSCAASGSTFYWYAMGWYRQAPGKEREFVAAISLGSGSTYYADSVKGRFTISRDNAKNTVYLQMNSLKPEDTAVYYCATVPWYIKVGQKRNDYWGQGTQVTVSS”, the “polyreactivity (PSR sort gate)” value was “high polyreactivity”.
Consider “QVQLVESGGGLVQAGGSLRLSCAASGSTFYYAMGWYRQAPGKEMELVASITFSTGSTYYADSVKGRFTISRDNAKNTVYLQMNSLKPEDTAVYYCATGVDTYSLTVEHDSWGQGTQVTVSS”, for which the “polyreactivity (PSR sort gate)” value is given as “low polyreactivity”.
For “QVQLVESGGGLVQAGGSLRLSCAASGSTFYYNAMGWYRQAPGKEREFVAAITYTGGSTDYADSVKGRFTISRDNAKNTVYLQMNSLKPEDTAVYYCAKGTYGYISTWYDYWGQGTQVTVSS” the value was “low polyreactivity”; for “QVQLVESGGGLVQAGGSLRLSCAASGSTFYYNAMGWYRQAPGKERELVADISWRGGITYYADSVKGRFTISRDNAKNTVYLQMNSLKPEDTAVYYCAADIYPDWIYLLYGYWGQGTQVTVSS”, “low polyreactivity”; for “QVQLVESGGGLVQAGGSLRLSCAASGSTFYYNAMGWYSQAPGKERELVAAISSDGSTNYADSVKGRFTISRDNAKNTVNLQMNSLKPEDTAVYYCAKKDFYFAPSPGYYRSRDYWGQGTQVTVSS”, “low polyreactivity”.
In the case of “QVQLVESGGGLVQAGGSLRLSCAASGSTFYYNTLGWYRQAPGKERELVAAISRSGGSTYYADSVKGRFTISRDNAKNTVYLQMNSLKPEDTAVYYCAARIIGARNLYGYWGQGTQVTVSS”, the “polyreactivity (PSR sort gate)” value is on record as “high polyreactivity”.
On to “QVQLVESGGGLVQAGGSLRLSCAASGSTFYYNTMGWYRQAPGKDRELVAAITWTGGSTYYADSVKGRFTISRDNAKNTVYLQMNSLKPEDTAVYYCAAVNWRDEIYDYWGQGTQVTVSS”, for which the “polyreactivity (PSR sort gate)” value was “low polyreactivity”.
